B1: Human factor H-related protein 2 (CFHR2), recombinant full length (natural protein, UniProt P36980 19-270, looked up)
chain: EAMFCDFPKINHGILYDEEKYKPFSQVPTGEVFYYSCEYNFVSPSKSFWTRITCAEEGWSPTPKCLRLCFFPFVENGHSESSGQTHLEGDTVQIICNTGYRLQNNENNISCVERGWSTPPKCRSTISAEKCGPPPPIDNGDITSFLLSVYAPGSSVEYQCQNLYQLEGNNQITCRNGQWSEPPKCLDPCVISQEIMEKYNIKLKWTNQQKLYSRTGDIVEFVCKSGYHPTKSHSFRAMCQNGKLVYPSCEEK
notes: Complement factor H-related protein 2 (CFHR2), human, four SCR domains; Secreted from Pichia; Several glycosylated forms; also called CFHR2 homodimer; CFHR2 dimer

Assays:
[1] = target: CFHR2/1-2 (N-terminal SCRs 1-2 of CFHR2) (human); assay: SEC-MALS; static light scattering (miniDawn TREOS, Optilab T-rEX) with size exclusion chromatography on Superdex 200 or Superdex 75; proteins purified by Ni2+-chelate chromatography, deglycosylated, non-reduced
N-biotinylated C3b = N-biotinylated C3b (UniProt P01024); assay: SPR; Biacore T200, 25°C; N-biotinylated C3b captured on a streptavidin-coated CM3 chip (520 RU); factor H or CFHR2 6.25–3200 nM in HBS-EP (10 mM HEPES pH 7.4, 150 mM NaCl, 50 µM EDTA, 0.005% P20), 30 µl/min; 1:1 model with mass transport term, KD from kinetic rate constants; one CFHR2 dimer regarded as one molecule
[2] = target: the molecule itself; assay: SEC-MALS; static light scattering (miniDawn TREOS, Optilab T-rEX) with size exclusion chromatography on Superdex 200 or Superdex 75; proteins purified by Ni2+-chelate chromatography, deglycosylated, non-reduced
C3d = target: T1, C3d (UniProt P01024 1002-1303); assay: ELISA; competition: C3b or C3dg (methods; C3d in results) 5 µg/ml immobilised; constant CFHR2 (5 µg/ml, 0.07 µM) and increasing factor H (5–50 µg/ml, 0.033–0.33 µM); factor H detected with factor H/1-4 antiserum, CFHR2 with mAb A72; conditions: both partners purified
T1 construct: C3d, cleavage fragment of complement C3; source: bought: Complement Technology
T1 sequence (P01024 1002-1303): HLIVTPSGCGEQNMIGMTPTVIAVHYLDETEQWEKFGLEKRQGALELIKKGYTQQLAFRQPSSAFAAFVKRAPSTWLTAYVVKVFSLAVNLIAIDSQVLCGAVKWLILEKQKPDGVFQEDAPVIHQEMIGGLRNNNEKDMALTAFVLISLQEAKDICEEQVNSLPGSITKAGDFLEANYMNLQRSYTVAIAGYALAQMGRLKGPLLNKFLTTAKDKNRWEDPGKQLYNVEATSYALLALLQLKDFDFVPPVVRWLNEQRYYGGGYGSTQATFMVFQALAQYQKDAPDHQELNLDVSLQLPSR

C3dg = target: T2, C3dg (UniProt P01024 955-1303); assay: ELISA; C3b, C3c, C3dg or C3d (each 142 nM) coated on MaxiSorp plates; CFHR2 or factor H (each 0.07 µM) or CFHR2 fragments in equimolar amounts; detected with CFHR1 and factor H antisera; conditions: both partners purified
T2 construct: C3dg, cleavage fragment of complement C3; cloned with the printed primer pair; source: E. coli, pET200/D-Topo expression system, purified (Ni-NTA Superflow Cartridge), dialyzed against DPBS
T2 sequence (P01024 955-1303): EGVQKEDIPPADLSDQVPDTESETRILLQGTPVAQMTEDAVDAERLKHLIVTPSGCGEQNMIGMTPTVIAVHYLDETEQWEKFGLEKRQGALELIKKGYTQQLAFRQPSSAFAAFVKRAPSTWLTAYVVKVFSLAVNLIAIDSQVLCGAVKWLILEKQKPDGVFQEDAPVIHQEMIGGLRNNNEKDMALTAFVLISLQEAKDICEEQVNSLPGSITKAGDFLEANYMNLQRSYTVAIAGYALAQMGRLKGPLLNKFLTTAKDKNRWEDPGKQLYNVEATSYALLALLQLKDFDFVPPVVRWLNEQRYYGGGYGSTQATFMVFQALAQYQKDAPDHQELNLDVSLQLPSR

Molecule	stoichiometry N [1]	Kd (N-biotinylated C3b) [nM]	stoichiometry N [2]	binding result (C3d)	binding result (C3dg)
CFHR2/1-2 (N-terminal SCRs 1-2 of CFHR2) (domain or fragment)	2	–	–	–	–
Factor H (from UniProt P08603 19-1231) (natural protein)	–	570	–	–	–
B1	–	4200	2	binds	binds

Reference: paper PMC3832495, “Human Factor H-Related Protein 2 (CFHR2) Regulates Complement Activation” (PLoS ONE, 2013)
